Measured values published in patent US20220177587A1, “METHODS AND USES OF VARIANT CD80 FUSION PROTEINS AND RELATED CONSTRUCTS” (Alpine Immune Sciences, Inc., priority 2018, published 2022).

B1: V22A/E35D/M47I/Y87N (protein)
chain: VIHVTKEVKEVATLSCGHNVSAEELAQTRIYWQKDKKMVLTMMSGDINIWPEYKNRTIFDITNNLSIVILALRPSDEGTYECVVLKNEKDAFKREHLAEVTLSVKADFPTPSISDFETPTSNIRRIICSTSGGFPEPHLSWLENGEELNAINTTVSQDPETELYAVSSKLDFNMTTNHSFMCLIKYGHLRVNQTFNWNTTKQEHFPDN
modifications: CD80 v253 ECD
B2: V22L/Q27H/E35D/M47I/A71G (protein)
chain: VIHVTKEVKEVATLSCGHNVSLEELAHTRIYWQKDKKMVLTMMSGDINIWPEYKNRTIFDITNNLSIVILGLRPSDEGTYECVVLKYEKDAFKREHLAEVTLSVKADFPTPSISDFETPTSNIRRIICSTSGGFPEPHLSWLENGEELNAINTTVSQDPETELYAVSSKLDFNMTTNHSFMCLIKYGHLRVNQTFNWNTTKQEHFPDN
modifications: CD80 v274 ECD
B3: Q33L/E35D/M47I/N48D/A71G (protein, UniProt P33681 35-288, looked up, variant Q33L E35D M47I N48D A71G)
T-lymphocyte activation …: VIHVTKEVKEVATLSCGHNVSVEELAQTRIYWLKDKKMVLTMMSGDIDIWPEYKNRTIFDITNNLSIVILGLRPSDEGTYECVVLKYEKDAFKREHLAEVTLSVKADFPTPSISDFEIPTSNIRRIICSTSGGFPEPHLSWLENGEELNAINTTVSQDPETELYAVSSKLDFNMTTNHSFMCLIKYGHLRVNQTFNWNTTKQEHFPDNLLPSWAITLISVNGIFVICCLTYCFAPRCRERRRNERLRRESVRPV
B4: H18Y/A26E/E35D/M47L/L85Q/D90G (protein, UniProt P33681 35-288, looked up, variant H18Y A26E E35D M47L L85Q D90G)
T-lymphocyte activation …: VIHVTKEVKEVATLSCGYNVSVEELEQTRIYWQKDKKMVLTMMSGDLNIWPEYKNRTIFDITNNLSIVILALRPSDEGTYECVVQKYEKGAFKREHLAEVTLSVKADFPTPSISDFEIPTSNIRRIICSTSGGFPEPHLSWLENGEELNAINTTVSQDPETELYAVSSKLDFNMTTNHSFMCLIKYGHLRVNQTFNWNTTKQEHFPDNLLPSWAITLISVNGIFVICCLTYCFAPRCRERRRNERLRRESVRPV
B5: E35D/D46E/M47V/N63D/L85Q (protein, UniProt P33681 35-288, looked up, variant E35D D46E M47V N63D L85Q)
T-lymphocyte activation …: VIHVTKEVKEVATLSCGHNVSVEELAQTRIYWQKDKKMVLTMMSGEVNIWPEYKNRTIFDITDNLSIVILALRPSDEGTYECVVQKYEKDAFKREHLAEVTLSVKADFPTPSISDFEIPTSNIRRIICSTSGGFPEPHLSWLENGEELNAINTTVSQDPETELYAVSSKLDFNMTTNHSFMCLIKYGHLRVNQTFNWNTTKQEHFPDNLLPSWAITLISVNGIFVICCLTYCFAPRCRERRRNERLRRESVRPV
B6: E35D/T41S/M43V/M47I/L70M/A71G (protein, UniProt P33681 35-288, looked up, variant E35D T41S M43V M47I L70M A71G)
T-lymphocyte activation …: VIHVTKEVKEVATLSCGHNVSVEELAQTRIYWQKDKKMVLSMVSGDINIWPEYKNRTIFDITNNLSIVIMGLRPSDEGTYECVVLKYEKDAFKREHLAEVTLSVKADFPTPSISDFEIPTSNIRRIICSTSGGFPEPHLSWLENGEELNAINTTVSQDPETELYAVSSKLDFNMTTNHSFMCLIKYGHLRVNQTFNWNTTKQEHFPDNLLPSWAITLISVNGIFVICCLTYCFAPRCRERRRNERLRRESVRPV
modifications: Fc fusion
B7: R29H/E35D/M43V/M47I/I49V (protein, UniProt P33681 35-288, looked up, variant R29H E35D M43V M47I I49V)
T-lymphocyte activation …: VIHVTKEVKEVATLSCGHNVSVEELAQTHIYWQKDKKMVLTMVSGDINVWPEYKNRTIFDITNNLSIVILALRPSDEGTYECVVLKYEKDAFKREHLAEVTLSVKADFPTPSISDFEIPTSNIRRIICSTSGGFPEPHLSWLENGEELNAINTTVSQDPETELYAVSSKLDFNMTTNHSFMCLIKYGHLRVNQTFNWNTTKQEHFPDNLLPSWAITLISVNGIFVICCLTYCFAPRCRERRRNERLRRESVRPV
B8: E35D/M47I/L85Q/D90G (protein, UniProt P33681 35-288, looked up, variant E35D M47I L85Q D90G)
T-lymphocyte activation …: VIHVTKEVKEVATLSCGHNVSVEELAQTRIYWQKDKKMVLTMMSGDINIWPEYKNRTIFDITNNLSIVILALRPSDEGTYECVVQKYEKGAFKREHLAEVTLSVKADFPTPSISDFEIPTSNIRRIICSTSGGFPEPHLSWLENGEELNAINTTVSQDPETELYAVSSKLDFNMTTNHSFMCLIKYGHLRVNQTFNWNTTKQEHFPDNLLPSWAITLISVNGIFVICCLTYCFAPRCRERRRNERLRRESVRPV
B9: E35D/M47L/L85Q: variant CD80 IgV-Fc, IgV SEQ ID NO:418 (protein)
chain: VIHVTKEVKEVATLSCGHNVSVEELAQTRIYWQKDKKMVLTMMSGDLNIWPEYKNRTIFDITNNLSIVILALRPSDEGTYECVVQKYEKDAFKREHLAEVTLSVKAD

Tests used:
CD28 [1] = molecular target: T1, CD28 (Homo sapiens, UniProt P10747); assay: Jurkat/IL2 + K562/OKT3/PD-L1 reporter assay; format: cell-based; design: host or cells: Jurkat cells expressing an IL-2-luciferase reporter; conditions: K562/OKT3/PD-L1 aAPC, 50 nM; for Relative Luciferase Units (RLU), CD80-Fe Cone 50 nM / Fold Increase over WT CD80-IgV-Fe: Table E8
CD28 [2] = molecular target: T1, CD28; assay: Flow binding to Jurkat/IL2 reporter cells (CD28); design: host or cells: Jurkat cells expressing an IL-2-luciferase reporter; conditions: for CD28 Fold change to WT CD80: MFI ratio to WT CD80 ECD-Fc (R&D) at 33.3 nM
Summary of the method: (§1)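 Flow cytometry on transfected CHO cells or CD28+ Jurkat/IL2 reporter cells, blocked 20 min in PBS/1% BSA/0.1% azide. Fusion protein 45 min on ice; PE anti-human Fc 1:150, 30 min on ice; fixed in 2% formaldehyde. Read-out PE MFI, EC50 calculated.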

huCTLA4 = huCTLA4 (Homo sapiens, UniProt P16410); assay: Flow binding to CHO cells stably expressing CTLA4; design: huCTLA4 and huPD-L1, full-length mammalian surface expression constructs were generated; expressed in transfected cells; host or cells: CHO cells, lentiviral transduction, sorted to >98% purity; conditions: for CTLA4 Fold change to WT CD80: MFI ratio to WT CD80 ECD-Fc (R&D) at 33.3 nM
Sequence of huCTLA4 (P16410 36-223): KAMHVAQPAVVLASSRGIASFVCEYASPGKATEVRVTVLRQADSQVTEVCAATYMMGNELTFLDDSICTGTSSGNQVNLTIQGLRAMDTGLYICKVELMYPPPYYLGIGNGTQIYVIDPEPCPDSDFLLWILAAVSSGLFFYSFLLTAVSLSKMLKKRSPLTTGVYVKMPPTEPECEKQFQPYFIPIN
Summary of the method: as §1

huPD-L1 = huPD-L1 (Homo sapiens, UniProt Q9NZQ7); assay: Flow binding to CHO cells stably expressing PD-L1; design: huCTLA4 and huPD-L1, full-length mammalian surface expression constructs were generated; expressed in transfected cells; host or cells: CHO cells, lentiviral transduction, sorted to >98% purity; conditions: for PD-L1 Fold change to WT CD80: MFI ratio to WT CD80 ECD-Fc (R&D) at 33.3 nM; for Ratio of PDL1:CD28: binding to PD-L1 compared to binding to CD28
Sequence of huPD-L1 (Q9NZQ7 19-290): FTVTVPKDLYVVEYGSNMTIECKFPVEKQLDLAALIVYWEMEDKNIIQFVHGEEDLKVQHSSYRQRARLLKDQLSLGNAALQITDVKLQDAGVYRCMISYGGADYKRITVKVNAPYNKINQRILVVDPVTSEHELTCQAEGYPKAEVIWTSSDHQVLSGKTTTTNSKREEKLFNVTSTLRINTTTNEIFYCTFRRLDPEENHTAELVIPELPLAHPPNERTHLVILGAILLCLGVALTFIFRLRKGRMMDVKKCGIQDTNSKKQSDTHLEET
Summary of the method: as §1

[3] = Table E4, 33.3 nM variant CD80 IgV-Fc, CHO cells stably expressing CTLA4
[4] = Table E4, CHO cells stably expressing PD-L1

| Molecule | Relative Luciferase Units (RLU), CD80-Fe Cone 50 nM (CD28 [1]) | CD28 MFI at 33.3 nM (CD28 [2]; Table E4, Jurkat cells (CD28)) | CTLA4 MFI at 33.3 nM (huCTLA4; [3]) | Fold Increase over WT CD80-IgV-Fe (CD28 [1]) | PD-L1 MFI at 33.3 nM (huPD-L1; [4]) | PD-L1 Fold change to WT CD80 (huPD-L1; Table E4) | Ratio of PDL1:CD28 (huPD-L1; Table E4) | CD28 Fold change to WT CD80 (CD28 [2]; Table E4) | CTLA4 Fold change to WT CD80 (huCTLA4; Table E4) | Relative Luciferase Units (RLU), CD80-Fc Conc. 50 nM (CD28 [1]; Table E7) | PD-L1 MFI at 33.3 nM (huPD-L1; Table E3) | PD-L1 MFI at 33.3 nM (huPD-L1; Table E19, CHO cells stably expressing PD-L1) | CD28 MFI at 33.3 nM (CD28 [2]; Table E3) | CD28 MFI at 33.3 nM (CD28 [2]; Table E19, Jurkats (CD28)) | CTLA4 MFI at 33.3 nM (huCTLA4; Table E3, 33.3 nM) | CTLA4 MFI at 33.3 nM (huCTLA4; Table E19, CHO cells stably expressing CTLA4, 33.3 nM) |
| --- | --- | --- | --- | --- | --- | --- | --- | --- | --- | --- | --- | --- | --- | --- | --- | --- |
| B1 | 1388 RLU | 15299 | 245711 | – | – | – | – | – | – | – | – | – | – | – | – | – |
| B2 | 1123 RLU | 7269 | 151600 | – | – | – | – | – | – | – | – | – | – | – | – | – |
| B3 | 213 RLU | 644 | 116798 | 1.0 | 31151 | 2.62 | 48 | 0.04 | 0.74 | – | – | – | – | – | – | – |
| B4 | 1506 RLU | 3540 | 230588 | – | – | – | – | – | – | – | – | – | – | – | – | – |
| B5 | 1381 RLU | 1331 | 274320 | 6.7 | 69780 | 5.88 | 52 | 0.07 | 1.74 | – | – | – | – | – | – | – |
| B6 | 1672 RLU | 2698 | 249456 | 8.1 | 12978 | 1.09 | 5 | 0.15 | 1.59 | – | – | – | – | – | – | – |
| B7 | 227 RLU | 336 | 4694 | 1.1 | 1590 | 0.13 | 5 | 0.02 | 0.03 | – | – | – | – | – | – | – |
| B8 | 1438 RLU | 4095 | 247703 | 7.0 | 35710 | 3.01 | 9 | 0.23 | 1.57 | – | – | – | – | – | – | – |
| B9 | – | – | – | – | – | – | – | – | – | 2852 RLU | 33200 | 6097 | 646 | 46.3 | 336179 | 12909 |
